US20190033295A1 (published 2019)

Biological target: HSP70 protein (UniProt P0DMV8 1-641)
Assay: SPR

HSP70 protein, sequence (P0DMV8 whole entry): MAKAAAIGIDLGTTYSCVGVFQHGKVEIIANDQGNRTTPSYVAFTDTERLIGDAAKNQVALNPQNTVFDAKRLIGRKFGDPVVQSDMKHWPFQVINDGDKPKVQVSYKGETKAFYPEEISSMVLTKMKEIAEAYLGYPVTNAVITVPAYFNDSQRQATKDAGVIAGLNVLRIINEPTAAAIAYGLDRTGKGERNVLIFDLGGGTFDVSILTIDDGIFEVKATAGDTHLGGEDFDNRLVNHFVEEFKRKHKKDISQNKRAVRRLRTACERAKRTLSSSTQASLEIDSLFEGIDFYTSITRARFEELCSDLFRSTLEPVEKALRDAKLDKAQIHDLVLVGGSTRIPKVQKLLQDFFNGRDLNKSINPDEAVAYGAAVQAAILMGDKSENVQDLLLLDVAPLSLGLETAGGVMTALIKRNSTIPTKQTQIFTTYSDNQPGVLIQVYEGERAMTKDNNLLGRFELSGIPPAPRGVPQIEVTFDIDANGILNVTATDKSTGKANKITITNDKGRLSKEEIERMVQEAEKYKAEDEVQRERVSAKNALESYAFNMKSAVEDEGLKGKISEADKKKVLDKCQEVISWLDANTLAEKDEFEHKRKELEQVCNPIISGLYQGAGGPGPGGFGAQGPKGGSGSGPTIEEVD

B1: AIMP2-DX2 protein (other)
chain: MPMYQVKPYHGGGAPLRVELPTCMYRLPNVHGRSYGPAPGAGHVQDYGALKDIVINANPASPPLSLLVLHRLLCEHFRVLSTVHTHSSVKSVPENLLKCFGEQNKKQPRQDYQLGFTLIWKNVPKTQMKFSIQTMCPIEGEGNIARFLFSLFGQKHNAVNATLIDSWVDIAIFQLKEGSSKEKAAVFRSMNSALGKSPWLAGNELTVADVVLWSVLQQIGGCSVTVPANVQRWMRSCENLAPFNTALKLLK
Kd: 0.479 nM
